T1: FAS extracellular domain (TNFRSF6, Ser20-Gly175) (UniProt P25445 20-175)
T1 construct: ECD cloned into pBadThioTopo; E. coli lysate on His capture plates
T1 sequence (looked up): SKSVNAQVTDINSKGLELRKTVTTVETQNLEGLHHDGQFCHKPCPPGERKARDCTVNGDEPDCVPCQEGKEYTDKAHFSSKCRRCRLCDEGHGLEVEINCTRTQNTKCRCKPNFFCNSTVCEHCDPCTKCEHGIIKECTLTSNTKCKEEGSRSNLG

T2: OPG (TNFRSF11B, Lys17-Ile197) (UniProt O00300 17-197)
T2 construct: range 17-197; ECD cloned into pBadThioTopo; E. coli lysate on His capture plates
T2 sequence (looked up): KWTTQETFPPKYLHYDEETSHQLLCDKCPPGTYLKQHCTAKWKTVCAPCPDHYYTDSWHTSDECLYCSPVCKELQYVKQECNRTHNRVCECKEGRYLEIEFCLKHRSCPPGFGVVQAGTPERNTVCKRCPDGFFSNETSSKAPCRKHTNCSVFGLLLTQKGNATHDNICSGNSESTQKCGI

T3: hGITR (human, UniProt Q9Y5U5)
T3 construct: extracellular domain, E. coli lysate captured on a His capture plate; Target named only on the sheet; the construct is not described in the text
T3 sequence (extracellular domain, looked up): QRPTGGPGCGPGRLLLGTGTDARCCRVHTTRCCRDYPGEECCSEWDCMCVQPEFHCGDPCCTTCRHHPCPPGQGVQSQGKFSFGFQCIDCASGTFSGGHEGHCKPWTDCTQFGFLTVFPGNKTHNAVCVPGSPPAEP

T4: OX40 extracellular domain (TNFRSF4, Gly33-Gly212) (UniProt P43489 33-212)
T4 construct: ECD cloned into pBadThioTopo; E. coli lysate on His capture plates
T4 sequence (looked up): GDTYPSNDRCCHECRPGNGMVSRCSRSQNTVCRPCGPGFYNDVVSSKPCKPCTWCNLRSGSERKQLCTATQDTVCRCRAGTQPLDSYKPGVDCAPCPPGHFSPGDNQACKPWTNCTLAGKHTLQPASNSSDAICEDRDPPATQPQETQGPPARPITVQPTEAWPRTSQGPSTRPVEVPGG

T5: DcR2 extracellular domain (TNFRSF10D, Thr57-Thr198) (UniProt Q9UBN6 57-198)
T5 construct: range 57-198; ECD cloned into pBadThioTopo; E. coli lysate on His capture plates
T5 sequence (looked up): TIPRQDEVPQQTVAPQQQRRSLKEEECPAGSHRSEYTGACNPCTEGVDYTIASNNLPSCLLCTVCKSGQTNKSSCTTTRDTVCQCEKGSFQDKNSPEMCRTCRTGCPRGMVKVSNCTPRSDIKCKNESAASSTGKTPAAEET

T6: TNFR1 extracellular domain (TNFRSF1A, Leu34-Thr211) (UniProt P19438 34-211)
T6 construct: range 34-211; ECD cloned into pBadThioTopo; E. coli lysate on His capture plates
T6 sequence (looked up): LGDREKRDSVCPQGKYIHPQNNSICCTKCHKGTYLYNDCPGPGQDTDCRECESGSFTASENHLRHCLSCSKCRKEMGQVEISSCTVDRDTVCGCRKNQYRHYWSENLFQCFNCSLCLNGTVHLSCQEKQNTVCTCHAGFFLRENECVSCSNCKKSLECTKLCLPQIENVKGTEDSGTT

T7: DcR3 (TNFRSF6B, Val27-Ala176) (UniProt O95407 27-176)
T7 construct: range 27-176; ECD cloned into pBadThioTopo; E. coli lysate on His capture plates
T7 sequence (looked up): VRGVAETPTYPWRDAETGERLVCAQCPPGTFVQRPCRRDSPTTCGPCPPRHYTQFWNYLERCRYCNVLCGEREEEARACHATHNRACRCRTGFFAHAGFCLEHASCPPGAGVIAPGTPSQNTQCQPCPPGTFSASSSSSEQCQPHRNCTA

B1: 7A12 tri (trivalent anti-DR5 NB construct) (VHH)
chain: EVQLVESGGGLVQAGGSLRLSCAASGRTFSNYAMGWFRQAPGKEREFVAALNWSGGSTYYVDSVKGRFTISRDNAKNTVYLQMNSLKPEDTAVYYCAAAGSFSLGGRPYGDDYWGKGTLVTVSSGGGGSGGGGSGGGGSGGGGSGGGGSGGGGSGGGGSEVQLVESGGGLVQAGGSLRLSCAASGRTFSNYAMGWFRQAPGKEREFVAALNWSGGSTYYVDSVKGRFTISRDNAKNTVYLQMNSLKPEDTAVYYCAAAGSFSLGGRPYGDDYWGKGTLVTVSSGGGGSGGGGSGGGGSGGGGSGGGGSGGGGSGGGGSEVQLVESGGGLVQAGGSLRLSCAASGRTFSNYAMGWFRQAPGKEREFVAALNWSGGSTYYVDSVKGRFTISRDNAKNTVYLQMNSLKPEDTAVYYCAAAGSFSLGGRPYGDDYWGKGTLVTVSS
notes: three VHH units in one chain joined by GlySer linkers; not shown: CMYC-HIS6 tag
B2: 11D1 tri (trivalent anti-DR5 NB construct) (VHH)
chain: EVQLVESGGGLVQPGGSLRLSCAASGSIDSINNMGWYRQAPGKQRELVAEITPRGRTNYADSEKSRFTISRDNAKRTVNLQMNSLKPEDTAVYYCNAEVRERGTSWYRPDYWGQGTQVTVSSGGGGSGGGGSGGGGSGGGGSGGGGSGGGGSGGGGSEVQLVESGGGLVQPGGSLRLSCAASGSIDSINNMGWYRQAPGKQRELVAEITPRGRTNYADSEKSRFTISRDNAKRTVNLQMNSLKPEDTAVYYCNAEVRERGTSWYRPDYWGQGTQVTVSSGGGGSGGGGSGGGGSGGGGSGGGGSGGGGSGGGGSEVQLVESGGGLVQPGGSLRLSCAASGSIDSINNMGWYRQAPGKQRELVAEITPRGRTNYADSEKSRFTISRDNAKRTVNLQMNSLKPEDTAVYYCNAEVRERGTSWYRPDYWGQGTQVTVSS
notes: as for B1

Experiments:
[1] = target: cynomolgus DR5-Fc fusion protein (cyno DR5 amino acids 56 to 213 fused with human IgG1 Fc) (cynomolgus; human); assay: SPR (Biacore), CM5 chip coated with cynomolgus DR5-Fc, 1 to 100 nM NB construct
[2] = target: T8, cell-bound human DR5 (Colo205 and other human cell lines) (human, UniProt O14763 56-440); assay: cell-based or functional assay
[3] = target: T8, cell-bound human DR5 (Colo205 and other …); assay: cell-based or functional assay; remark: listed apart in the source
[4] = target: T1, FAS extracellular domain (TNFRSF6, …); assay: ELISA, receptor ECD from E. coli lysate on His capture plate;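 further: binding specificity screen across TNF receptor superfamily ectodomains, anti-V5 detection as expression reference, primary antibody incubation 1 h at room temperature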
[5] = target: T2, OPG (TNFRSF11B, Lys17-Ile197); assay: as above
[6] = target: T3, hGITR; assay: as above
[7] = target: T9, CD137 extracellular domain (TNFRSF9, Glu19-Ile188) (UniProt Q07011 19-188); assay: as above
T9 construct: range 19-188; ECD cloned into pBadThioTopo; E. coli lysate on His capture plates
T9 sequence (Q07011 19-188 limits assumed): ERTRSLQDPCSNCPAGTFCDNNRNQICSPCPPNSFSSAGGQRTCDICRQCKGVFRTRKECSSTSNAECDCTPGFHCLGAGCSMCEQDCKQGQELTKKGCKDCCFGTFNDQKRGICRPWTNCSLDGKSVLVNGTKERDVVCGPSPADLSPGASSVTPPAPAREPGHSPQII

[8] = target: T4, OX40 extracellular domain (TNFRSF4, …); assay: as above
[9] = target: T10, TNFR3 extracellular domain (TNFRSF3, Pro30-Thr224) (UniProt P36941 30-224); assay: as above
T10 construct: range 30-224; ECD cloned into pBadThioTopo; E. coli lysate on His capture plates
T10 sequence (P36941 30-224 limits assumed): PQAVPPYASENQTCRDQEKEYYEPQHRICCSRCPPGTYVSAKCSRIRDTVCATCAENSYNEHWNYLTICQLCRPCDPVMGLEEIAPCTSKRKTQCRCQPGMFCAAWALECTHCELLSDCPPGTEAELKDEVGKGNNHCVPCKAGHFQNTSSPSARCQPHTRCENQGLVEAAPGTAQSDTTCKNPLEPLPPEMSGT

[10] = target: T11, CD27 extracellular domain (TNFRSF7, Thr21-Ser187) (UniProt P26842 21-187); assay: as above
T11 construct: range 21-187; ECD cloned into pBadThioTopo; E. coli lysate on His capture plates
T11 sequence (P26842 21-187 limits assumed): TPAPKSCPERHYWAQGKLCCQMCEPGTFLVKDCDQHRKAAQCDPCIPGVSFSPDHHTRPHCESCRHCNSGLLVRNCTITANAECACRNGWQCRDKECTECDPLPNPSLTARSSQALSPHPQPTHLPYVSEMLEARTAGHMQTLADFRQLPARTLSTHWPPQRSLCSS

[11] = target: T5, DcR2 extracellular domain (TNFRSF10D, …); assay: as above
[12] = target: T6, TNFR1 extracellular domain (TNFRSF1A, …); assay: as above
[13] = target: T7, DcR3 (TNFRSF6B, Val27-Ala176); assay: as above
[14] = target: T12, CD40 extracellular domain (TNFRSF5, Val18-Leu192) (UniProt P25942 18-192); assay: as above
T12 construct: range 18-192; ECD cloned into pBadThioTopo; E. coli lysate on His capture plates
T12 sequence (P25942 18-192 limits assumed): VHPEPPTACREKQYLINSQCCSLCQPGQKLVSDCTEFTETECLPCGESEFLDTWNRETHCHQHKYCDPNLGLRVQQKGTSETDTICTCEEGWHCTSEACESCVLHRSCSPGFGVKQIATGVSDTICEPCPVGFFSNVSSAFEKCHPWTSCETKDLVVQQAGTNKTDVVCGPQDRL

[15] = target: T13, BAFFR extracellular domain (TNFRSF13C, Met1-Gly64) (UniProt Q96RJ3 1-64); assay: as above
T13 construct: range 1-64; ECD cloned into pBadThioTopo; E. coli lysate on His capture plates
T13 sequence (Q96RJ3 1-64 limits assumed): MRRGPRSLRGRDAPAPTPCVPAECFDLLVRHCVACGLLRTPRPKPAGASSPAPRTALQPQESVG

Binder	Kd [1]	IC50, cell survival, Colo205 [2]	IC50, cell survival, A549 [3]	IC50, cell survival, ARPE-19 [3]	IC50, cell survival, H226 [3]	IC50, cell survival, H2052 [3]	IC50, cell survival, H2122 [3]	IC50, cell survival, Huvec [3]	IC50, cell survival, IMR-90 [3]	IC50, cell survival, Jurkat [3]	IC50, cell survival, M30 [3]	IC50, cell survival, MiaPaCa-2 [3]	IC50, cell survival, Molt4 [3]	IC50, cell survival, Panc-1 [3]	binding result [4]	binding result [5]	binding result [6]	binding result [7]	binding result [8]	binding result [9]	other results
B1	< 0.03 nM	120 pM	≥ 20 nM	≥ 20 nM	30 pM	64 pM	8 pM	≥ 20 nM	≥ 20 nM	≥ 20 nM	≥ 20 nM	≥ 20 nM	≥ 20 nM	≥ 20 nM	no binding (tested: not stated)	no binding (tested: not stated)	no binding (tested: not stated)	no binding (tested: not stated)	no binding (tested: not stated)	no binding (tested: not stated)	binding result [10]: no binding (tested: not stated); binding result [11]: no binding (tested: not stated); binding result [12]: no binding (tested: not stated); binding result [13]: no binding (tested: not stated); binding result [14]: no binding (tested: not stated); binding result [15]: no binding (tested: not stated)
B2	< 0.2 nM	111 pM	≥ 20 nM	≥ 20 nM	30 pM	15 pM	4 pM	≥ 20 nM	≥ 20 nM	≥ 20 nM	≥ 20 nM	≥ 20 nM	≥ 20 nM	≥ 20 nM	no binding (tested: not stated)	no binding (tested: not stated)	no binding (tested: not stated)	no binding (tested: not stated)	no binding (tested: not stated)	no binding (tested: not stated)	binding result [10]: no binding (tested: not stated); binding result [11]: no binding (tested: not stated); binding result [12]: no binding (tested: not stated); binding result [13]: no binding (tested: not stated); binding result [14]: no binding (tested: not stated); binding result [15]: no binding (tested: not stated)
